The values that follow come from the nanobody polyreactivity screen of Harvey et al. (2022).

This data set in a line: yeast display, Sf9 membrane polyspecificity reagent, FACS + sequencing; frameworks hold sequencing errors. In outline:
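Genes from sorted yeast were amplified by colony PCR, read by MiSeq 2 × 250 sequencing and filtered on CDR length. These cells carried a synthetic nanobody library in Saccharomyces cerevisiae BJ5465 and were sorted by FACS into low and high (top ~1%) gates on anti-HA and streptavidin fluorescence. Polyreactivity is labelled according to the gate of origin.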
For the sequence “QVQHVDSGGGLVQAGGSLSLSCAASGSIFWPNTMGWYRQARGKERELVATISSGADTSYADSVKGRFTISRDNAKNTVYLQMNSLKPADTAVYYCAIRITVDDDHPRAQTFNYCGQGTQVTVSS”, the “polyreactivity (PSR sort gate)” value is reported as “low polyreactivity”.
For “QVQHVDSGVCLVQAGGSLRLSCDASGSIFGSYAMGWYRQPPGKERELVAAISKSVGNTYYADSVKGRFTISRDNAKNTVYLQMNSLKPEVTAVYYCAAYGFYRWRGYDYWGQGTQVTVSS” the value was “high polyreactivity”; for “QVQHVESAGGLVQAGGSLRLSCAASGSIFWYAMGWYRQAPGKERELVDGISRGGSTYYADSVKGRFTISRDNAKNTVYLQMNSLKPEDTAVYYFNTAGYYGTPYNYWGQGTQVTVSS”, “low polyreactivity”; for “QVQHVESGGALVQAGGILRLSCAASGYTFYVYAMGWYRQAPGKERELVAAISGGSNTYYADSVKGRFTISRDNGKNTVYLQMNSLKPEDTAVYYCAKSSTTYRQRARYDYWGQGTQVTVSS”, “high polyreactivity”.
The value for “QVQHVESGGALVQAGGSLRLSCAASGSIFGDYAMGWYRQAPGKERELVAAITSDRDTYYADSVKGRFTISRDNAKNTVYLQMNSLKPEDTAVYYCNATYGGPYFIQYDYWGQGTQVTVSS” was “low polyreactivity”; that for “QVQHVESGGALVQAGGSLRLSCAASGSTFIKYAMGWYRQAPGKERELVAAISRSGASTYYADSVKGRFTLSRDNEKNTVYLQMKSLKPEDTAVYYCAARRRYLDHGYWGQGTQVTVSS” was “high polyreactivity”.
Consider “QVQHVESGGCLVQAGGILRLSCAASGSIFQSNTMGWYRQAPGKVRELVAYISNGGTTTYANSVKGRFTISRDNAKTTVYLQMNSLKPEDTAVYYCATYYWQYYEYDYWGQGTQVTVSS”, for which the “polyreactivity (PSR sort gate)” value is recorded as “low polyreactivity”.
For “QVQHVESGGCLVQAGGSLRLSCAASGLIIKSYVMGWYRQAPGKERELVAGITGSGGTTYYADSVKGRFTISRDNAKNTVDLQMNSLKPEDTAVYYCDARSRSRPKYDYWGQGTQVTVSS” the value was “high polyreactivity”; for “QVQHVESGGCLVQAGGSLRLSCAASGSIFYRYAMGWYRQGPGKESQLVAAIRRGGSTNYADSVKGRFTISRDNAKYTVSLQMNSLKPEDTAVYYCAAGRFTYAAQSYEYWGQGTQVTVSS”, “high polyreactivity”; for “QVQHVESGGGIVQAGGSLRLSCPASGSIYRKYAMGWSRQTPGKERELVAAIRSSGGSTYYADSVKGRFTISRDNAKNTVYLQMNSLKPEDTAVYYCASTYYRPSRYDYCGQGTQVTVSS”, “high polyreactivity”.
The value for “QVQHVESGGGLFKAGGTLRLSCAASGRTIYPYAMVLYIQAPGKESELVAAIRWSGGSTYYADSVKGRFTISRDNSKNTVYLQMNSLKPVDTAVYYCNADWKSYRGPIVDYWGQGTQVSVSS” was “low polyreactivity”; that for “QVQHVESGGGLGQAGGSLRLSCAASGIIFPRYKAWYRPAPGKDRELVAAIRWSSDDTNYADSVKGRFTISRDNAKNTVYLQMNSLKPEDTAVYYCAADSYYDRTIQFEFSARTYDYWVQGTQVTVSS” was “low polyreactivity”; that for “QVQHVESGGGLLQAGGSLRLSCAASGITFFEYAMGWYRQAPGKERELVAVITSVGSTNYADSVKGRFTISRDNAKNTVYLQMNSLKPVDTAVYYCNARLVKYRWWYDYYYWGQGTQVTVSS” was “low polyreactivity”.
For “QVQHVESGGGLVQAAGSLRLICYASGSIFGSYAMGWYRPAPGKERELVAAISSRGSRTYYADSVKGRFTISRDNAKNTVYLQMNSLKPEDTAVYYSNAGALTNYDYWGQGTQVTVSS” the value was “high polyreactivity”; for “QVQHVESGGGLVQAAGSLRLSCAASGTIFYWYTMGWYRQARGKERELVATITGSGSSTTYADSVKGRFTISRDNAKNSVYLQMNSLKPEDTAVYYCAKVYYIGIRGEYDYWGQGTQVTVSA”, “low polyreactivity”.
Take “QVQHVESGGGLVQAGGNLRLSCPASGRTIYSYTMGWYRQTPGKERELVAAINRSGGRTYYADSVKGRFTISRDNAKNTVYLQMNSLKQEDTAVYYGNALEYYRYDYWGQGTQVTVSS”: the “polyreactivity (PSR sort gate)” value is recorded as “high polyreactivity”.
For “QVQHVESGGGLVQAGGRLSLICSASGGNIKFNAMGWYRQAPGKERELVAAITDGGSTYYADSVKGRFTISRDNAKNTVYLEMNSLKAEDTAVYYCNAEGVSLYGYDSGVDSGEDYWGQGTQVTVSS” the value was “low polyreactivity”; for “QVQHVESGGGLVQAGGSLLLSCAASGSIFASYAMGWYRQAPGKEREFVASISRSGGRTYYADSVKGRFTISRDNAKNTVYLQMKSLKPEDTAVYYCAAQPSSYVYYRQPFHYWGQGTQVTVSS”, “high polyreactivity”; for “QVQHVESGGGLVQAGGSLRLRCAASGFTFGSYAMGWYRQAPGKERELVASISSAGRTYYADSVKGRITISRDNAKNSVYLQMNSLKPEDTAVYYCNTDARVTIYDYDYWGQGTQVTVSS”, “low polyreactivity”.
For the sequence “QVQHVESGGGLVQAGGSLRLRCAASGITSRYNDMGWSRQAPGKERELVATITWRGVSTYYADSVKGRFTISRDNAKNTVYVQMNSLKPEDTAVYYCAARRPGYYPYKGFDYWGQGTQVTVSS”, the “polyreactivity (PSR sort gate)” value is “high polyreactivity”.
For “QVQHVESGGGLVQAGGSLRLRCAASGRTFKKYAMGWYRQAPGKAWELVAAITGSGGSTYYADSVKGRFTFSRDNAKNTVYLQMNRLKPEDTAVYYCAAYAYGVWQSQDGGNYWGQGTQVTVSS” the value was “low polyreactivity”; for “QVQHVESGGGLVQAGGSLRLRCAASGSIFVHNDMGWYRQAPGKERDLVAAISSGSSTNYADSVKGRFTISRDNAKNTVFLQMNSLKPEDTAVYYCAVTSPYSHGYSYWGADSRDYWGQGTQVTVSS”, “low polyreactivity”; for “QVQHVESGGGLVQAGGSLRLSCAASGFIFDFNAMGRYRPPPGKERELVATISSDGSTNYADSVKGRFTISRDNAKNTVYLQMNSLKPEDTAVYYCNKDSHKDAGTLPGWWYDYWGQGTQVTVSS”, “low polyreactivity”.
Regarding “QVQHVESGGGLVQAGGSLRLSCAASGFIFGVYDMGWYRQAPGKERELVAAIDCVGSTYYADSVKGRFTISRDNAKNTVYLQMNSLKPEDTAGYYCNAARSRLYYDKYYYWGQGTQVTVSS”, the “polyreactivity (PSR sort gate)” value is given as “low polyreactivity”.
The value for “QVQHVESGGGLVQAGGSLRLSCAASGFIFRNYAMGWYRQAPGKERELVAAISSRGGSTYYADSVKGRFTISRDNAKNTVYLQMNRLKPEVTAVYYCARRYFYTYGYWGQGSQVTVSS” was “high polyreactivity”; that for “QVQHVESGGGLVQAGGSLRLSCAASGFIFYDKAMGRYRTAPGKERELVAGITYRTGSTFYADSVKGRFTISRDNAKNTVYLQMISLKPEDTAVFYCAAVRRISWYTPVNTRRYYYWGQGTQVTVSS” was “high polyreactivity”; that for “QVQHVESGGGLVQAGGSLRLSCAASGFIFYIYAMGWYRQAPGKERELVAAITSGGSTYYADSVKGRFTISRDNAKNTVYFQMNSLKPEDTAVFYCNRRSGHVHEYDYWGQGTQVTVSS” was “low polyreactivity”.
As to “QVQHVESGGGLVQAGGSLRLSCAASGFIFYKYAMGWYRQAPGKERELVAAISKRGGSTYYADSVKGRFTISRDNAKNTVYLQMNSLKPEDTAVYYCATDGGNSATVRYVASDYWGQGTQVTVSS”, the “polyreactivity (PSR sort gate)” value is given as “high polyreactivity”.
As for “QVQHVESGGGLVQAGGSLRLSCAASGFNFAYNIMGWYRQAPGKERELVADISGTGSTNYADSVKGRFTISRDNAKNTVYLQMNSLKPEDTAVYYCATSGDRLVWGQGTQVTVSS”, the “polyreactivity (PSR sort gate)” value is recorded as “low polyreactivity”.
For “QVQHVESGGGLVQAGGSLRLSCAASGFTFSKYGMGWYRQAPGKERELVAAISGSGGNTYYADSVKGRFTISRDNAKNTVYLQMNSLKPEDTAVYYCNAEGWRYYYWYHEYGYWGQGTQVTVSS” the value was “low polyreactivity”; for “QVQHVESGGGLVQAGGSLRLSCAASGFTFYGNALGWYRQAPGKERELVAAITSGGSTYYADSVKGRFTISRDNAKNTVYLQMNSLKPDDTAVYYCAADEVLYGYEYWGQGTQVTVSS”, “low polyreactivity”; for “QVQHVESGGGLVQAGGSLRLSCAASGFTFYSYVMGWYRQAPGKERELVAAITRGGSTYYADSVKGRFTISRDNAKNTVYLQMTSLKPEDTAVYYCAKRPSYGYNYWGHGTQVTVSS”, “low polyreactivity”.
The value for “QVQHVESGGGLVQAGGSLRLSCAASGGTFLANAMGWYRQAPGKERELVAAISWRGGSTRYADSVKGRFTISRDNAKNTVYLQMNSLKPEDTAVYYCAARYLYFTGFYYWGQGTQVTVSS” was “high polyreactivity”; that for “QVQHVESGGGLVQAGGSLRLSCAASGIFFFYGMGWYRQAPGKQRQLLAVISTGDTTDYADSVKGRSTISRDNAKNTVYLQMNSLIPEDTAVYYCAATGRSRSYSWSKLNYWGQGTQVTVSS” was “low polyreactivity”.
On to “QVQHVESGGGLVQAGGSLRLSCAASGIIFYDKTMGWYRQAPGKERELVASITWRGGSTYYADSVKGRFTISRDNAKNTVYLQMNSLKPEDTAVYYCNADSSDDYDYWGQGTQVTVSS”, for which the “polyreactivity (PSR sort gate)” value was “low polyreactivity”.
The value for “QVQHVESGGGLVQAGGSLRLSCAASGIIFYDYTMGWYRQAPGKERELVAVITNGDTTYYADSVKGRFTISRDNAKNTVYLQMNSLKPEDTAVYYCAADKRPPYILDYWGQGTQVTVSS” was “high polyreactivity”.
For “QVQHVESGGGLVQAGGSLRLSCAASGITFYRYAMGWYIQAPGKERELVAAINASGGSTYYADSVKGRFTISRDKAKNTVYLQMNSLKPEDTAVYYCAADRVSWVKHYYWGQGTKVTVSS” the value was “high polyreactivity”.
For “QVQHVESGGGLVQAGGSLRLSCAASGITFYVNDMGWSRQAPGKEREFVAAISYRGGSPYYADSVKGRFTFSRDNAKNTVYLKMNSLKPEDTAVYYCAADYNYWSPHRYDYWGQGTQVTVSS” the value was “low polyreactivity”; for “QVQHVESGGGLVQAGGSLRLSCAASGLTFELYAMGWYRQAPGKERELVAAITWSGGRTYDADSVKGRFTISRDNAKNTVYLQMNSLKPEDTAVYYCAADVYPGYVGSQEYDYWGQGTQVTVSS”, “low polyreactivity”.
In the case of “QVQHVESGGGLVQAGGSLRLSCAASGLTFRVYAMGWYRQEPGKERELVAAITGGGGSTYADSVKGRFTISRENAKNTVYLQMNSLNPDDTAVYYCNIKGYYYKFDYWGQGTQVTVSS”, the “polyreactivity (PSR sort gate)” value is “low polyreactivity”.
For “QVQHVESGGGLVQAGGSLRLSCAASGQIYNQNAMGWYRQAPGKERELVAAISYRGGSTYYADSVKGRFTISRDNAKNTVYLQMNSLKPEDTADYYCAAARSGSGGKQFDHGFNYWGQGTQVTVSS” the value was “high polyreactivity”.
